Results as given in patent US20220396813.
Residue numbers refer to the chain shown, from its start.

Columns and labels:
Test in all cases: cell_activity
[1] = tested on: T1, Rec2 WP_006717173.1 (Aggregatibacter segnis); settings: HEK293T inversion; background 0.2565; repeat 0.27 vs 0.265
T1 sequence: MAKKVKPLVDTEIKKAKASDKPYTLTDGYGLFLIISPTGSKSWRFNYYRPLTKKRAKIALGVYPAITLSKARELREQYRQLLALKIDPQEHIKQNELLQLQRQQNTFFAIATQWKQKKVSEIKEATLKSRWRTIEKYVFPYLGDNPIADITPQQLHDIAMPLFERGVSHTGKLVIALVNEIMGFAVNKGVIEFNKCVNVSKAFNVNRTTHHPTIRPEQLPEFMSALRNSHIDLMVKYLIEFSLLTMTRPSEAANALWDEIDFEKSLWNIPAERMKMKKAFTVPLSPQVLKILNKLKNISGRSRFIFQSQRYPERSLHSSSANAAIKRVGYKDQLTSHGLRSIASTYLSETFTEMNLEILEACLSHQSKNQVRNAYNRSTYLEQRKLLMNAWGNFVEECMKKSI

[2] = tested on: T2, Rec3 WP_006718580.1 (Aggregatibacter segnis); settings: HEK293T inversion; background 0.2565
T2 sequence: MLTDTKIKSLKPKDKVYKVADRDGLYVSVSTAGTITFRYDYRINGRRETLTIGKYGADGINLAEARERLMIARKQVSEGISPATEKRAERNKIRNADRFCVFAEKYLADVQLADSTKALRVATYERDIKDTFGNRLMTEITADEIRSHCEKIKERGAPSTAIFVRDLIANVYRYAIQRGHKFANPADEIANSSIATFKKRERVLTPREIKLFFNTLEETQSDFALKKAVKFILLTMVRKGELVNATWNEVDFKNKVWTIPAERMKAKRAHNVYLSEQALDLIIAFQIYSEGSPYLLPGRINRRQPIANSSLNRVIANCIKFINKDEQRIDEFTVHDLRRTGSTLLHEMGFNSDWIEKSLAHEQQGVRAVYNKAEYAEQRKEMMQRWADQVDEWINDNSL

[3] = tested on: T3, Rec4 WP_006719234.1 (Aggregatibacter segnis); settings: HEK293T inversion; background 0.2565
T3 sequence: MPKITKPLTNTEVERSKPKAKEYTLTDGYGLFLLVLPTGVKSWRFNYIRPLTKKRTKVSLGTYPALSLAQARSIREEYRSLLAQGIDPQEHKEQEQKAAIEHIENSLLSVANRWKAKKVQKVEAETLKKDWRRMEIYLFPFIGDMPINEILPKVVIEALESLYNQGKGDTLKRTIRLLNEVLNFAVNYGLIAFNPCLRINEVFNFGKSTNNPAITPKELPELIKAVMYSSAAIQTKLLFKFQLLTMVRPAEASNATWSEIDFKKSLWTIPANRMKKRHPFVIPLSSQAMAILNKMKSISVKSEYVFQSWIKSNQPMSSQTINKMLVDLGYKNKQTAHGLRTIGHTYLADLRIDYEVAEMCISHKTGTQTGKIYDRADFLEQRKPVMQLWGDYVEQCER

[4] = tested on: T4, Rec5 WP_109859198.1 (Aggregatibacter segnis); settings: HEK293T inversion; background 0.265
T4 sequence: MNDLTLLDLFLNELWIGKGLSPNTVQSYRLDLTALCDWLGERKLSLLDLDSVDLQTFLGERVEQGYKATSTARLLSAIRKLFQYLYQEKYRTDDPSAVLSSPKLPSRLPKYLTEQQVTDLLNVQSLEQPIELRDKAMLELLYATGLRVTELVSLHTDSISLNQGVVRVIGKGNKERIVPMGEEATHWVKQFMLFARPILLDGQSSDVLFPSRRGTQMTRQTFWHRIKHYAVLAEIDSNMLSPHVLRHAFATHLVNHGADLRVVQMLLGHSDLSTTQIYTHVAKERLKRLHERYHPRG

[5] = tested on: T5, Rec6 WP_006717195.1 (Aggregatibacter segnis); settings: HEK293T inversion; background 0.2565
T5 sequence: T4 sequence with G40S, D201N

[6] = tested on: T6, Rec7 WP_005715799.1 (Aggregatibacter segnis); settings: HEK293T inversion; background 0.2565
T6 sequence: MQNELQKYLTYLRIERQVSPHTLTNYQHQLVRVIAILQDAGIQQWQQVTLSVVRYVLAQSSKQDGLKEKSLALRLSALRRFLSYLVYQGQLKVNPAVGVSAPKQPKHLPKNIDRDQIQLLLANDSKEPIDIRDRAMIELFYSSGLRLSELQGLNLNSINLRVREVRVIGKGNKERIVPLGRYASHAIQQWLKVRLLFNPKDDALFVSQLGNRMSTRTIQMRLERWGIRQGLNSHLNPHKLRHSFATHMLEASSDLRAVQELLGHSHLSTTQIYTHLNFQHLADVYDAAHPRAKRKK

[7] = tested on: T7, Rec10 WP_017746151.1 (Scytonema hofmannii); settings: HEK293T inversion; background 0.264
T7 sequence: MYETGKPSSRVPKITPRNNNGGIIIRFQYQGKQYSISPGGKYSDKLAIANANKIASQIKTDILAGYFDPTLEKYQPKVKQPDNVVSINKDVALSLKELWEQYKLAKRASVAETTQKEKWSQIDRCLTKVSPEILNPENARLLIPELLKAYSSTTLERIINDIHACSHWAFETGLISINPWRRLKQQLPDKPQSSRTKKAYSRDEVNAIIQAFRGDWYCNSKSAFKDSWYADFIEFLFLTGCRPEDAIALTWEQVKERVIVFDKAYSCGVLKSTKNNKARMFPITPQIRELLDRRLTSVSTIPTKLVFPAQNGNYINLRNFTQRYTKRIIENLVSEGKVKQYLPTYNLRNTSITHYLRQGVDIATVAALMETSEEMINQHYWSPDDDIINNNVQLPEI

[8] = tested on: T8, Rec8 WP_017740000.1 (Scytonema hofmannii); settings: HEK293T inversion; background 0.264
T8 sequence: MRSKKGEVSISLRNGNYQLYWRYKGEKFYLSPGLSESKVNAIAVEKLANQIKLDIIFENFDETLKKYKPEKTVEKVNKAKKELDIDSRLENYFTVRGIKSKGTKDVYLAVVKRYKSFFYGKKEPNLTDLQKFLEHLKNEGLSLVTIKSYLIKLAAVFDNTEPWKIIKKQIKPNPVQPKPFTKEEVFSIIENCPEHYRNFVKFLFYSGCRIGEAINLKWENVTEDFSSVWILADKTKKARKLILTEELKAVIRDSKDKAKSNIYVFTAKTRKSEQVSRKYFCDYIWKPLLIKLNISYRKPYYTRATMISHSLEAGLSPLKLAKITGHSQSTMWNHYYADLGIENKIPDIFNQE

[9] = tested on: T9, Rec9 WP_017744257.1 (Scytonema hofmannii); settings: HEK293T inversion; background 0.264
T9 sequence: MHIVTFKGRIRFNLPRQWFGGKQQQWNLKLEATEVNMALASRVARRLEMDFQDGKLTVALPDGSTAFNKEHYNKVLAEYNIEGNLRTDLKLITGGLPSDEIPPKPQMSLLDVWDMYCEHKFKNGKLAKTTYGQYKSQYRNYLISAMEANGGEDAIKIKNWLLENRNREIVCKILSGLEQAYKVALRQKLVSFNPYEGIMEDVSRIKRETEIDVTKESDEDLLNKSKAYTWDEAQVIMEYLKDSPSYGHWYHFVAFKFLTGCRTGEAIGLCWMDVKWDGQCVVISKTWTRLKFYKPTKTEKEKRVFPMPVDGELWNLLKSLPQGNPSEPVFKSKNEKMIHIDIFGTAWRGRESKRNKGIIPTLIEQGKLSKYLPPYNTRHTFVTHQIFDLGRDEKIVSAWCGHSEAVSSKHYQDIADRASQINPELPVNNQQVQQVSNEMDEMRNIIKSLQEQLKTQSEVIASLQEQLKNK

[10] = tested on: T10, Rec11 WP_038150996.1 (Veillonella montpellierensis); settings: HEK293T inversion; background 0.07465
T10 sequence: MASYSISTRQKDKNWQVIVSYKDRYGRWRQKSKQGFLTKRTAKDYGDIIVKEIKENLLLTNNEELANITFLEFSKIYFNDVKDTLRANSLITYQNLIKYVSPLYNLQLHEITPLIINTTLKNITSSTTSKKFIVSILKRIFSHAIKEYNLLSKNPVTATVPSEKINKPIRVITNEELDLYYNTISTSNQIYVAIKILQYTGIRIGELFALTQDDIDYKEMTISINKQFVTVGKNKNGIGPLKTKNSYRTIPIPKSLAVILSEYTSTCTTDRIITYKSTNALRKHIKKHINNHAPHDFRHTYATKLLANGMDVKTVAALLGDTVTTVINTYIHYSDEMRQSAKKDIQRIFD

[11] = tested on: T11, Rec12 WP_038150898.1 (Veillonella montpellierensis); settings: HEK293T inversion; background 0.07465
T11 sequence: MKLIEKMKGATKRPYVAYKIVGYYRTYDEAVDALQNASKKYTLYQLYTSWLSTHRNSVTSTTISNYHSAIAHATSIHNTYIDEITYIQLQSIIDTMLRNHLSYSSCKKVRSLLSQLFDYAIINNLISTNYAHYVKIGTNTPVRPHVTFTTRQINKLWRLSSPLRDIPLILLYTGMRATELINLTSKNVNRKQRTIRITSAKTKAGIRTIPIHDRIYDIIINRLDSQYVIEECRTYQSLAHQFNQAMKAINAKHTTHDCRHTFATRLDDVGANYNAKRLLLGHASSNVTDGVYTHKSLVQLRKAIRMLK

[12] = tested on: T12, Rec23 WP_047824597.1 (Croceicoccus naphthovorans); settings: HEK293T inversion; background 0.81
T12 sequence: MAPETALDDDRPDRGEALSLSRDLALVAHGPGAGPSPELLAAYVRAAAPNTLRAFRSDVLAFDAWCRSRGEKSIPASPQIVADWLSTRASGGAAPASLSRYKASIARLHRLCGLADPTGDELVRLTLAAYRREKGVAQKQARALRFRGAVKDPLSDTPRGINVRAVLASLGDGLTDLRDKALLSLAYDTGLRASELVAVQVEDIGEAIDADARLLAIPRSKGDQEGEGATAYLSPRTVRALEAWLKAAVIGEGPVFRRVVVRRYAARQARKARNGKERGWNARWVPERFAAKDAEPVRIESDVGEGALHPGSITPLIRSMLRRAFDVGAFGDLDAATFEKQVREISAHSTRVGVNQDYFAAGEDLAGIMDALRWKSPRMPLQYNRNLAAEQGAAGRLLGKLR

[13] = tested on: T13, Rec27 WP_021170377.1 (Sporomusa sp.); settings: HEK293T inversion; background 6.51
T13 sequence: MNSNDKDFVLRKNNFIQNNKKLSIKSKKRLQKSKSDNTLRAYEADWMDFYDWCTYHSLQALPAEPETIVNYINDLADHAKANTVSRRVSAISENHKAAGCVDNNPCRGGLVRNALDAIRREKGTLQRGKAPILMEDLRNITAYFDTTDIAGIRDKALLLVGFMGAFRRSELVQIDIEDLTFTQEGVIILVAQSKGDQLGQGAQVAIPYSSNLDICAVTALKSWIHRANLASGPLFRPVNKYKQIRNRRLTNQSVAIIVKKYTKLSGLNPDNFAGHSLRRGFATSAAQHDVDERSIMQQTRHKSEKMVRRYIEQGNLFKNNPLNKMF

[14] = tested on: T14, Rec13 WP_126045042.1 (Candidatus Aquarickettsia); settings: HEK293T inversion; background 5.795
T14 sequence: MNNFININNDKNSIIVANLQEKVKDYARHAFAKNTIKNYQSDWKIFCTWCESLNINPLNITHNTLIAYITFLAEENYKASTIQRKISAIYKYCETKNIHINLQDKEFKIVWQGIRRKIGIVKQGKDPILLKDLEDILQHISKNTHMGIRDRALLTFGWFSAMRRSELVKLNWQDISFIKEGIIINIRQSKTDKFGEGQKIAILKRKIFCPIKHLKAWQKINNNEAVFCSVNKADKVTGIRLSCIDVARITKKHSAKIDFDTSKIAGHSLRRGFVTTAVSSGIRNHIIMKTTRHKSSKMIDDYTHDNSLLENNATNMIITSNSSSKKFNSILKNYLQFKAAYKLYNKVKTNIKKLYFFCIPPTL

**Q.** With “AATAAAGGGAATNNNNNNNNATTCCCTTTATT (double strand) [Rec2-7 natural site]” as the sequence, how does the activity [1] read?
**A.** Its activity is 0.133 % GFP+.

**Q.** And the activity [2]?
**A.** Its activity is 0.096 % GFP+.

**Q.** What about the activity [3] of the same sequence?
**A.** Its activity is 0.134 % GFP+.

**Q.** What about the activity [4] of the same sequence?
**A.** The activity was 0.195 % GFP+.

**Q.** What about the activity [5] of the same sequence?
**A.** Its activity is 0.135 % GFP+.

**Q.** And the activity [6]?
**A.** Its activity is 0.108 % GFP+.

**Q.** “CAATTTTTGAAANNNNNNNTTTCAAAAATTG (double strand) [Rec8-10 natural site]” was tested. Which activity [7] did it give?
**A.** Its activity is 0.168 % GFP+.

**Q.** What about the activity [8] of the same sequence?
**A.** The activity was 0.165 % GFP+.

**Q.** And the activity [9]?
**A.** The activity was 0.133 % GFP+.

**Q.** For “CACTGATATATANNNNNNNTATATATCAGTG (double strand) [Rec11-12 natural site]”, which activity [10] is on record?
**A.** The activity was 0.0237 % GFP+.

**Q.** What about the activity [11] of the same sequence?
**A.** Its activity is 0.031 % GFP+.

**Q.** With “GGACATGTGATANNNNNNNNTATCACATGTTG (double strand) [Rec23 natural site]” as the sequence, how does the activity [12] read?
**A.** The activity was 43.3 % GFP+.

**Q.** With “TAACTAATGATANNNNNNNNNTATCACTAGTTG (double strand) [Rec27 natural site]” as the sequence, how does the activity [13] read?
**A.** The activity was 62.7 % GFP+.

**Q.** “TAATGTTCTATANNNNNNNNTATAAAACACTA (double strand) [Rec13 natural site]” was tested. Which activity [14] did it give?
**A.** The activity was 4.46 % GFP+.
